Test results reported in the DeepSol protein solubility set.

Experiment: soluble on expression in E. coli; label from the status in PepcDB or PDB records
For “MSLSIVEPDLENCFRILIATDNHIGYAEKDPVRGQDSINTFREILELARDHDVDFILLAGDLFHENRPSRTCMHQTIALLREFTLGDKPIEFELLSDPMDGSTPGFSFPAVNYEDPNINIAIPVFSIHGNHDDPQGTGPEGALCALDVLSVSGVLNYFGKSDLVADENAADNPEKGIQIRPVLLRKGTTHVALYGCGNIRDQRMYQELRANKVKMFMPTGGNVPDSEWFNILLVHQNRVRHGPQNYVPENMFDDSMRLVIWGHEHDCRITPESVADKSYFITQPGSSVATSLAPGEAIPKHVGLLSIQGSQFQLEEIPLKTVRPFELDEVVLSYAAEQGAVDLNDRDSITSFLREQVEALILQAKKEGHHHHHH”, the “soluble on expression in E. coli” value was “not soluble”.
With “MSLSKIIFPGFIDLHNHFPQTQVIASYGTKLLEWLNKYTFPNESLFVDDKHCERESKIFLDLLNHNGITTSVSFGSVHPNSVEYLFQEAHRRNMCVIAGNVLMDRNAPDTVLEKADKSYLSSKEIISKWHNVSRCKYAITPRFAITSTPELMEVSQTLCAENQSCYVQTHLSENIDEIETTLELFPDQKDYLSIYDKYKLLSNKTLLAHSIHLEMSEIERMKETKSIAVHCPTSNLFLGSGLFKFKELEEKGVRTAIATDVGGGTSFSMLRTLDEAYKVQQLGNYSLNPLASYFWSTMEGHHHHHH” the “soluble on expression in E. coli” value was “soluble”.
For “MSLSKPLKAIIIGAGISGMVASVRLREMGIEHTIFEKNNEFGGTWWENRYPGCGVDTPNLTYTFSFRPNDWSAFFPLRDEIENYLLETARESGLYDRVRFGTKVERAEWLADRNQWQVTVRAEDGSEEVHHADIVMSAVGILNMPVVPDIKGLSGFAGRVVHTSDWPQDIDLKGKRVAVVGNGASAMQVVPAIADQVAELTIFARSKQWAAPFPQFRKPVPNGVRYLMQVVPLYRAWVEQRLSWTFNDRVHGTLFRDPDWKEPARAVNAINDGHREFFTRYVREELGERQDLLPLVLPDYPPFAKRMLLDNGWYRTLRKPHVKLVPQRLAEVRGHTLVAQDGQEIEADVLILATGFQAANVLGSYDVIGRDGRDLHEFWEGDNAAAYLGTLVPGFPNFFILLGPNVGSGHGGSMIRNIENQAHYATRVIEALVKSGADAVEVREDVYGDYKARIDAAHEKLVWTHPGATNWYRNSRGRVVAITPWRNDAFWRMTREARPEDLSFSGAEGHHHHHH”, the “soluble on expression in E. coli” value was “soluble”.
For “MSLSKPLQVNPHKLSPVMGAHLACLGVDGVMPIIHGAQGCSNFSKVFFTRHFSEPIVSHSTAVNDITAVLDGGACVAEAIDTLAKKSPFKLAAIITTGLTETKGDDVKGAIGQLSYPALYFPTPDYEGGLEEGFALAIEVFIKERMVSVTTPDPKLALILPHASMTPLEVEKLKEFLEDFGVRALALPDLSGSLDGHLEERQGSVSKGGITLEEIEEASRAGMILSIGESTRKARQAFLAKNPGAFDLNVESLYGLRSSDALIRALMDWTGHEPSVRIKRWRARLQDMMLDSHFALGGKRVIAALENDHLLGISKILEEVGMSFELAVATTGGPAMTKISAKEAVVGDLEHLMQNIESSEGVIACERLGGFLPKETPWLVRGYPIFERIGTGLGNDILYEGGCYLLKELANLFLKEHQAHEGHHHHHH”, the “soluble on expression in E. coli” value was “soluble”.
With “MSLSKRAYFGTDGIRGQANKHPMTAEVALRVGLAAGKLFRSQDERRHLVVIGKDTRLSGYMIEPALVAGLTSVGLDVRLFGPLPTPAVAMMTRSMRADLGIMISASHNSFADNGIKLFGPDGYKLSDAQELGIEALMDQGLQEGLAAPRELGRVKRIDDAQARYVEIVKATFPRHLNLSGLRIVIDCANGAAYKVAPTALYELGAEVITLGVSPDGTNINEECGSTHPEAMAKMVREYRADIGIALDGDADRLVICDEKGVVVDGDQIMAIIAAASHKAGTLKGGGVVATVMSNLGLERQLNTMGLSLERTAVGDRYVMQRMREGGFNVGGEQSGHLILSDFSTTGDGLIAALQVLAVMVETDKPMSALGRQFEPVPQLLENVRFVGGKPLEAAAVKEAIADGEAQLNGAGRIVVRASGTEPLIRIMAEGDDPALVKKVVKSIASAVKEGHHHHHH” the “soluble on expression in E. coli” value was “soluble”.
In the case of “MSLSKYAVSYVYKTFADIGSYAWAKKQIEVLASKGVINGTSDTTFTPQADITRADFMILLVKALGLTAEVTSNFDDVSEKDYYYEYVGIAKELGITTGVGNNKFNPKAKITRQDMMVLTTNALRIAGKISSTGTRADVERFSDKDQIASYAVEGVATLVKEGIVVGSGDIINPRGNASRAELAAIIYKIYYKEGHHHHHH”, the “soluble on expression in E. coli” value is reported as “soluble”.
For “MSLSNKSLTTGTAVDVLAGLPVKREASATGYSRTADFGAAWLDVDGNNCDTRNDILHRDLTDAVQRGGCKILSGTLNDKYSGESIHFVRGAKTSALVQVDHIVALKNAWVTGAQQLTQAQRVSFANDPLNLIAVDAHSNEQKSSGDAATWLPANKSSRCEYVARQISVKATYGLWVTPAEKSAMMDILADCSGQMAESSTFTEGHHHHHH”, the “soluble on expression in E. coli” value was “soluble”.
In the case of “MSLSNQEPIANYKFNYKTTANKVMKNINLSGKTIIITGGYSGIGLEMTKQLSRAGAKIIIPARRMEVAKKNLSKIKNIDILPLDLTNPESIHQFAESFLQNNSKLDILINSAGLMYLPLKRDSRGIEYHFATNHLGHYQLTLELLPALKNAKISRVINLSSRAQQMTPLLEDWNFEKIENYNPQIGYQQSKTANVLFSIKLDELGKKYGIRSFAVHPGMIPMTNIGRQNSPITPWLRYLADYFKLIHIPVFFNALKSGFDRSKYRYLKTIAQGAATPLWASTSPDLEGKGGLYCEDLNIARLMTSEEANNFSGGLRPHAIDHNDADRLWQISKNITGLDEGHHHHHH”, the “soluble on expression in E. coli” value is reported as “not soluble”.
With “MSLSPPKPSALAHVPGDEGWPIIGRTLAVLADPKGEVEKMARTYGPVYRSRVLGETSITLLGPEANELVLFDNTKLFSSTHGWGPILGRLFPRGLMMLDFDEHRLHRRTLSVAFKAGPMQSYLAELNAGIAHRVAEWRARPGEMLCYPAMKQLTLDLAATSFLGTAIGAETEEVNRAFIDMVAASVAPIRKPWPGTAMARGVKGRQRIVAYFAEQIPIRRAKGGDDLFSQLCRATHDDGALLSNQAIIDHMSFLMMAAHDTLTSSLTSFVAALAAHPEWQQKLREEIAGLGLKPGEPISFEQLDALPLTEMAFKEAMRLRPPVPSLPRRATRAFSFKGYTIPAGTMVAVNPLFTHHMPEIWPNPDQFDPLRFTDEASRGRHRFAWIPYGGGAHMCLGLNFAYMQAKCFAVHLLQHLDLSLPPNYQASWQMWPIPKPKDGLRVNVAPLNEGHHHHHH” the “soluble on expression in E. coli” value was “soluble”.
In the case of “MSLSQFAAGAGKKAGEFYTPQEVSRILAEIVAIGHQRLRNVYDPTCGSGSLLLRAASIGNAVDIYGQEKNPTTYNLARMNMLLHGIRFSNFKIENGDTLEWDAFGDTQFDAVVANPPFSAEWSAADKFNTDDRFSKAGRLAPRKTADYAFILHMIYHLNEGGTMACVAPHGVLFRGNAEGVIRRFLIEKKNYVDAIIGLPANIFYGTSIPTCILVFKKEGHHHHHH”, the “soluble on expression in E. coli” value is reported as “not soluble”.
For “MSLSQVQVDRALAGLIVRAPLPAGWRAERMSALDVAAVAAVEQAAFAFPWSRGNFEDSLKSGHLGIVLRDGGNQVAGYLILMPVVDEMHLLNVTVAPAWQRQGLGRWLLRAAQALTLAHGFASLLLEVRPSNAGAIALYRRVGFAEIGRRKRYYPAENNTREDALVMRIACEAGGVEAAEGHHHHHH”, the “soluble on expression in E. coli” value was “not soluble”.
For “MSLSRGAGEAAYRQRLVAVGDLHGDIDNAKKTLQMARIIDDDSKWVASTDILVQTGDIVDRGAYADDIYRLMQSLRGQAASQGGKVVSILGNHEVMNAIGDWRYVTKGDIARFGGTKSRQHALSAEGWLGQEWLANYSTTALVPISPYPSSPTFSFTHGSLRPSYANLTPYPAAINDLGHSLLTKALTPPMAPPYPPNPYSGLPKGTTHEEADLYAEGGPLWWRGLAEREEAQVCEWAKNLKQKIGARRIIGGHTPNFEKIVARCNASVIIIDTGISSAYGGVLSALEIVYTLTPVDRRGRDHSQDPLLLSTSSESIAGLKGRFVEREEVHAIYEHSRKWLALEEREVVLDEGHHHHHH”, the “soluble on expression in E. coli” value was “not soluble”.
For “MSLSRILFLTDLHWDHDYLEGTDPDCADPLCCRRGSGLPPASRPGAGYWGEYSKCDLPLRTLESLLSGLGPAGPFDMVYWTGDIPAHDVWHQTRQDQLRALTTVTALVRKFLGPVPVYPAVGNHESTPVNSFPPPFIEGNHSSRWLYEAMAKAWEPWLPAEALRTLRIGGFYALSPYPGLRLISLNMNFCSRENFWLLINSTDPAGQLQWLVGELQAAEDRGDKVHIIGHIPPGHCLKSWSWNYYRIVARYENTLAAQFFGHTHVDEFEVFYDEETLSRPLAVAFLAPSATTYIGLNPGYRVYQIDGNYSGSSHVVLDHETYILNLTQANIPGEGHHHHHH”, the “soluble on expression in E. coli” value was “soluble”.
